According to the supplement of paper PMC6757056:
± gives the standard deviation of the averaged measurements.

B1: library; a variant is named by its letters at N, in order (parent)
chain: GCUGUCACCGGAAUACCAGCAUCGUCUUGAUGCCCUUGGAAGUCCGGUCUGAUGAGUCCNNNNNGGACGAAACAGC

Key:
theophylline [1] = variants of: B1; experiment: FACS-Seq fitted mean relative fluorescence mCherry/BFP without ligand (log10 relative fluorescence); higher = higher reporter protein expression; settings: HEK293T, ligand present: no
In short: (§1)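 With or without ligand for 48 h, enriched HEK293T libraries carrying a lentiviral ribozyme-switch mCherry reporter and EF1α-BFP were sorted into 6 mCherry/BFP bins. Bin genomic DNA was amplified by PCR, barcoded and sequenced on MiSeq. Fluorescence was taken from normal fits to the resulting bin counts. Each fitted mean of log10(mCherry/BFP) was scaled to five spiked-in control ribozymes.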

theophylline [2] = variants of: B1; experiment: normalized RNA/DNA level with ligand (relative to sTRSVctl = 100) (log10 (% of sTRSVctl)); higher = less ribozyme self-cleavage, higher mRNA level; settings: ligand concentration (+) RNA-Seq: 5 mM, HEK293T, reporter: mCherry (pCS4076), ligand present: yes
In short: (§2)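 Library plasmids carrying ribozyme switches linked to mCherry, or to eGFP in some ligand experiments, were transfected into HEK293T at 4 µg per 6-well well, with any ligand added 1 h earlier. Seventy-two hours on, total RNA was extracted with EDTA and reverse-transcribed, amplified, barcoded and sequenced. RNA level was RNA over DNA reads normalized to a spiked-in non-cleaving sequence or to the top sequences, then scaled and log-transformed. The top set was 25 sequences, the transform was ×100 and log10, and sequences needed ≥100 DNA reads.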

theophylline [3] = variants of: B1; experiment: normalized RNA/DNA level without ligand (relative to sTRSVctl = 100) (log10 (% of sTRSVctl)); higher = less ribozyme self-cleavage, higher mRNA level; settings: HEK293T, reporter: mCherry (pCS4076), ligand present: no
In short: as §2

theophylline [4] = variants of: B1; experiment: FACS-Seq fitted mean relative fluorescence mCherry/BFP with ligand (log10 relative fluorescence); ligand concentration (+) FACS-Seq: 1 mM; higher = higher reporter protein expression; settings: HEK293T, ligand present: yes
In short: as §1

Variant	FACS-Seq fitted mean (log10) (theophylline [1])	normalized RNA/DNA level with ligand (log10) (theophylline [2])	normalized RNA/DNA level without ligand (log10) (theophylline [3])	FACS-Seq fitted mean (log10) (theophylline [4])
ACCGC	1.12 ± 0.047	2.06 ± 0.056	1.99 ± 0.03	1.1 ± 0.027
ACCGU	0.885 ± 0.043	1.952 ± 0.0024	1.83 ± 0.039	0.856 ± 0.08
ACCGG	0.955 ± 0.0037	1.95 ± 0.021	1.94 ± 0.076	1.05 ± 0.12
ACCGA	0.6309 ± 0.0029	2.006 ± 0.015	1.77 ± 0.059	0.7685 ± 0.0034
ACGUU	0.575 ± 0.11	2.05 ± 0.044	1.79 ± 0.042	0.657 ± 0.051
ACGUG	0.7349 ± 0.0044	1.99 ± 0.14	1.76 ± 0.033	0.974 ± 0.16
ACGUA	0.721 ± 0.11	2.011 ± 0.017	1.62 ± 0.19	0.9207 ± 0.0039
ACGUC	1.11 ± 0.098	1.99 ± 0.031	1.91 ± 0.038	1.1245 ± 0.0011
ACUCG	1.06 ± 0.14	1.95 ± 0.2	1.89 ± 0.11	1.17 ± 0.035
ACUCA	0.648 ± 0.038	1.97 ± 0.14	1.92 ± 0.076	0.659 ± 0.088
ACUCC	0.767 ± 0.21	2 ± 0.068	1.96 ± 0.026	0.658 ± 0.024
ACUCU	-0.437 ± 0.075	2.01 ± 0.052	1.93 ± 0.075	-0.125 ± 0.13
UGAGA	0.307 ± 0.012	1.922 ± 0.0069	1.5 ± 0.13	0.709 ± 0.041
UGAGU	0.6996 ± 0.0034	2.02 ± 0.17	1.86 ± 0.12	0.676 ± 0.013
UGAGC	1.21 ± 0.082	1.9256 ± 8.8e-05	1.98 ± 0.13	1.24 ± 0.12
CCGUC	0.556 ± 0.018	2.11 ± 0.037	1.93 ± 0.073	0.413 ± 0.034
CCGUA	0.864 ± 0.056	2 ± 0.099	1.65 ± 0.12	0.992 ± 0.043
CCUUU	0.664 ± 0.036	2.046 ± 0.019	1.85 ± 0.039	0.81 ± 0.074

Variant	FACS-Seq fitted mean (log10) (theophylline [1])	normalized RNA/DNA level with ligand (log10) (theophylline [2])	normalized RNA/DNA level without ligand (log10) (theophylline [3])	FACS-Seq fitted mean (log10) (theophylline [4])
CCUUA	0.654 ± 0.02	1.992 ± 0.0039	1.73 ± 0.1	0.707 ± 0.035
UCCUA	0.918 ± 0.078	2 ± 0.13	2.007 ± 0.0046	0.92 ± 0.058
UCCUG	0.994 ± 0.063	2.02 ± 0.1	1.99 ± 0.037	0.905 ± 0.0097
UCCUC	0.414 ± 0.042	2.03 ± 0.022	2.022 ± 0.015	0.566 ± 0.064
UCCUU	0.983 ± 0.13	2.011 ± 0.0076	1.94 ± 0.053	1.01 ± 0.082
AGAAA	-0.278 ± 0.17	1.853 ± 0.0095	1.12 ± 0.042	0.515 ± 0.022
AGAAG	0.448 ± 0.033	1.93 ± 0.025	1.61 ± 0.17	0.576 ± 0.014
AGAAC	0.387 ± 0.005	1.9164 ± 0.00023	1.78 ± 0.12	0.507 ± 0.016
CCGAA	-0.229 ± 0.1	1.93 ± 0.06	1.4 ± 0.089	0.178 ± 0.11
CCGAC	0.958 ± 0.04	1.94 ± 0.04	1.91 ± 0.13	1.06 ± 0.043
CCGAU	0.974 ± 0.065	2 ± 0.047	1.64 ± 0.11	1.06 ± 0.11
ACGGC	1.25 ± 0.15	1.97 ± 0.059	1.97 ± 0.067	1.17 ± 0.014
ACGGU	0.778 ± 0.062	1.89 ± 0.13	1.7 ± 0.095	1.004 ± 0.0021
ACGGA	0.425 ± 0.14	1.95 ± 0.02	1.66 ± 0.073	0.602 ± 0.1
UCUAA	0.476 ± 0.055	2.03 ± 0.14	1.68 ± 0.095	0.588 ± 0.039
UCUAU	0.822 ± 0.091	2.051 ± 0.0076	1.867 ± 0.015	0.994 ± 0.05
UGAUA	0.3741 ± 0.0021	1.955 ± 0.0019	1.42 ± 0.17	0.789 ± 0.084
